Laboratory results published in patent US20190194322A1 (published 2019).
Like-named read-outs stand apart in the source and are kept apart here.

How the values were obtained:
[1] = molecular target: T1, Recombinant human VSIG3 Fc Chimera; test: SPR (Biacore), VSIG3-Fc immobilized, antibody as analyte, single-cycle kinetics
T1 chain: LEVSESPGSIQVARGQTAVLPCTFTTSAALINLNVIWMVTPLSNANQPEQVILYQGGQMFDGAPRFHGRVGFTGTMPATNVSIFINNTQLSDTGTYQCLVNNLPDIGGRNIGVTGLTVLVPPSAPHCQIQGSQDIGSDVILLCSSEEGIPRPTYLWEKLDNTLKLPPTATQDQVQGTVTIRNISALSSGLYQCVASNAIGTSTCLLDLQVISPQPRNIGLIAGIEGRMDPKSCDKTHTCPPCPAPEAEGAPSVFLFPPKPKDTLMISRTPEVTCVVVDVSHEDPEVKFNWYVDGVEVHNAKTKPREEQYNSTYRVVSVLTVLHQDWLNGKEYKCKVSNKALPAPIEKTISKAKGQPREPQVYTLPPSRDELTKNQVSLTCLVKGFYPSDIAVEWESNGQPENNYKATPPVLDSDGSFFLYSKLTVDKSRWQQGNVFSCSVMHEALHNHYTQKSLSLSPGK

[2] = molecular target: T1, Recombinant human VSIG3 Fc Chimera; test: SPR (Biacore, single-cycle kinetics)
[3] = molecular target: T2, VSIG3 His-fusion (human, UniProt Q5DX21 23-241, biotinylated (in the co-immunoprecipitation of FIG. 2)); test: SPR (Biacore), antibody captured on protein A/G/L, single-cycle kinetics
T2 chain: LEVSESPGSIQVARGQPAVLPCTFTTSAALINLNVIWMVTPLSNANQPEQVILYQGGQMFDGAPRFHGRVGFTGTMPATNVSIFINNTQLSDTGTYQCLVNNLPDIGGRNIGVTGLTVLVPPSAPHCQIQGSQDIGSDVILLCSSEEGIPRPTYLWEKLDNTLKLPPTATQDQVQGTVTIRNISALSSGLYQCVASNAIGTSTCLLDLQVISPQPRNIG

[4] = molecular target: T2, VSIG3 His-fusion; test: as above
[5] = molecular target: T1, Recombinant human VSIG3 Fc Chimera; test: SPR (Biacore, single-cycle kinetics)
[6] = molecular target: T1, Recombinant human VSIG3 Fc Chimera; test: SPR (Biacore, single-cycle kinetics)
[7] = molecular target: T1, Recombinant human VSIG3 Fc Chimera; test: SPR (Biacore, single-cycle kinetics)

B1: mouse anti-human VSIG3 monoclonal antibody from clone #973428 (antibody, V domains shown)
VH: EVQLVESGGDLVKPGGSLKLSCAASGFTFNSYGMSWVRQTPDKRLEWVAIISSGGSYTYYPDSVKGRFTISRDNAKNTLYLQMSSLKSEDTAMYYCARLSYYYGSSPYAMDYWGQGTSVTISS
VL: DIVLTQSPASLAVSLGQRATISCRASKSVSTSGYSYMHWYQQKPGQSPKLLIYLASNLESGVPARCSGSGSGTDFTLNIHPVEEEDAATYYCQHSRELPYTFGGGTKLEIKR
- Kd [1]: 2.2 nM

B2: mouse anti-human VSIG3 monoclonal antibody from clone #774226 (antibody, V domains shown)
VH: DVQLQESGPGLVKPSQSLSLICTVTGYSITSDYAWNWIRQFPGNKLEWMGYISYSGYTTYNPSLKSRISITRDTSKNQFFLQLNSVTTEDTATYYCAISGGSWFAYWGQGTLVTVSA
VL: DIQMTQSPASLSASVGETVNITCRTSENINSYLAWYQQKQGKSPQLLVYNAKTLAEGVPSRFSGSGSGTQFSLKINSLQPEDFGSYYCQHHYGTPPTFGGGTKLEIKR
- Kd [2]: 65 nM
- Kd [3]: 42 nM

B3: mouse anti-human VSIG3 monoclonal antibody from clone #774221 (antibody, V domains shown)
VH: DVQLQESGPGLVKPSQSLSLTCTVTGYSITSDYAWNWIRQFPGNKLEWMGYISYSGYAIYNPSLKSRISITRDTSKNHFFLQLNSVTTEDTATYYCARSGGSWFAYWGQGTLVTVSA
VL: DIQMTQSPASLSASVGETVTITCRASENINSYLAWYQQKQGKSPQLLVYNAKTLAEGVPSRFSGSGSGTQFSLKINSLQPEDFGSYYCQHHYGTPPTFGGGTKLEIKR
- Kd [2]: 21 nM
- Kd [3]: 25 nM

B4: mouse anti-human VSIG3 monoclonal antibody from clone #774213 (antibody, V domains shown)
VH: DVQLVESGGGLVQPGGSRKLSCAASGFTFSSFGMHWVRQAPEKGLEWVAYISSGSTTIYYADTVKGRFTISRDNPKNTLFLQMTSLRSEDTAMYYCTRGSYYRYDLYYAMDYWGQGTSVTVSS
VL: DIQMTQSPSSLSASLGGKVTITCKASQDIHKYVAWYQHKPGKGPRLLIHYTSTLQPGIPSRFSGSGSGSDYSFSISNLEPADIASYYCLQYDNLLFTFGGGTKLEIKR
- Kd [4]: 19 nM
- Kd [5]: 9.2 nM

B5: mouse anti-human VSIG3 monoclonal antibody from clone #973401 (antibody, V domains shown)
VH: QVQLQQSAAELARPGASVKMSCKASGYTFATYTIHWVKQRPGQGLEWIGYINPSSGYTEYNQKFKDKTTLTADKSSSTAYMQLSSLTSEDSAVYYCARREVYGSGSMDYWGQGTSVTVSS
VL: QIVLTQSPALMSASPGEKVTMTCSASSSVSFMYWYHQKPRSSPKPWIYLTSNLASGVPARFSGSGSGTSYSLTISSMEAEDAATYYCQQWSSNPLTFGAGTKLELKR
- Kd [6]: 2.2 nM

B6: mouse anti-human VSIG3 monoclonal antibody from clone #973422 (antibody, V domains shown)
VH: EVKLVESGGGLVQPGGSLKLSCAASGFTFSSYSMSWVRQTPEKRLEWVAYISNGGGSTYYPDTVKGRFTISRDNAKNTLYLQMSSLKSEDTAMYYCARHGDGYYPWFAYWGQGTLVTVSA
VL: QIVLSQSPAILSASPGEKVTMTCRASSSVSYIHWYQQKPGSSPKPWIYATSNLASGVPARFSGSGSGTSYSLTISRVEAEDAATYYCQQWSSNPFTFASGTKLEIKR
- Kd [7]: 1.5 nM
